What all share (format): biochemical
The nature of test [1]: LC-MS assay of GH3 conjugation of IAA with Asp or Glu. The conditions noted are these: LC-MS; for Detected auxin conjugates: IAA-Asp: IAA with Asp; for Detected auxin conjugates: IAA-Glu: IAA with Glu. Summed up: (§1)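 N-His-tagged GH3 homologs expressed in E. coli C41(DE3) and Ni-NTA purified (44 to 164 μg/mL) were incubated 3 hours at 30° C. in 20 mM Tris-HCl pH 8.0, 5 mM MgCl2, 1 mM DTT with 5 mM each of auxin, ATP and Asp or Glu. Conjugates were quantified by LC-MS against standards.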

Test [2] can be described thus: LC-MS assay of GH3 conjugation of 2,4-D with Asp or Glu. To be noted: LC-MS; for Detected auxin conjugates: 2,4-D-Asp: 2,4-D with Asp; for Detected auxin conjugates: 2,4-D-Glu: 2,4-D with Glu. Summed up: as §1
A short description of test [3]: LC-MS assay of GH3 conjugation of dicamba with Asp or Glu. The conditions noted are these: LC-MS; for Detected auxin conjugates: Dicamba-Asp: dicamba with Asp; for Detected auxin conjugates: Dicamba-Glu: dicamba with Glu. Summed up: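 Dicamba–amino acid (Asp or Glu) conjugates formed by purified his-tagged GH3 enzymes were detected by LC-MS on an AB Sciex 4000 QTrap with Shimadzu Nexera UHPLC and a Phenomenex Luna 3 μm Phenyl-Hexyl column, after 20× dilution of the supernatant in water. Standards were used to quantify conjugates. Protein concentration was determined by Bradford assay.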

B1: Br016359: GH3 protein, Bra016359 (protein, listed as Brassica rapa)
chain: MSVISVLTEKANDKLKILEDLTSNVKQIQDNVLEEILTLNTNTEYLQRFFHGKFDKEIFKKNVPVGTYEDVKPYIQRVANGEPSNVISTRPITGFLLSSGTSGGAQKIMPWNEKFLDYLTFMYDLRMHVITNYVKGLEKGKAMMFYFTKLESTTASGLPARTASSSYLKSSYFKNRPCNWYYTYTSPDEVILCPDNKQSLYCHLLCGLVQRNEVTRMGSIFASVMVRAIKFLEDSWEELCSNIRSGQLSEWITDPGCRDSVSMVLGGPHPEVANTVEKICNEKCWKGILKRLWPRTKYIETIVTGSMAQYVPTLNYYCNDMLPLVSTIYASSETTFGLNLNPLCKPEDVSYTIMPNVSYFEFIPLDGDENDVVDLADLKLGCSYELVVTNFSGLYRIRVGDILLVTGFYNKAPQLRFIRRDNVVLSIDMDKTNEEDLFNAVNRAKLIINSSGLMLTDFTSHGDISTIPGHYVIYWEVEDKREDKTKHICMELKGDAFSECCLVMEDSFDNVYKRCRFREKTVGPLEIKVVLHGTFDSLMDFFISQGASIGQYKTPRCIGSGKPLELLEKNVVATFFSTGDCSFKN
For B1, in test [1], the “Detected auxin conjugates: IAA-Asp” value was “Yes” and the “Detected auxin conjugates: IAA-Glu” value was “No”. Moreover, in test [2], the “Detected auxin conjugates: 2,4-D-Asp” value is on record as “Yes” and the “Detected auxin conjugates: 2,4-D-Glu” value is “No”. Also, in test [3], the “Detected auxin conjugates: Dicamba-Asp” value was “No” and the “Detected auxin conjugates: Dicamba-Glu” value is given as “No”.

B2: Br040953: GH3 protein, Bra040953 (protein, listed as Brassica rapa)
chain: MMIPSYDPNDTEAGLQLLEDLTTNADAIQQQVLHQILSQNSETEYLRSFLDGESCNIQENFKNKAPVVNYEDIKPFIQRISDGDSSDILSAQPITELLTSSGTSGGKPKFMPSTAEELDRKTFFYNMLVPVMNKFVNGLDEGKGMYLLFIKPEIKTPSGLQARPVLTSYYKSEQFKNRPFNKYNVITSPNDAILCEDSQQSMYCQLLCGLVQRSDVLRLGAIFASAFLRAVKFLENHFTELCADIRTGTVASWITDSGCRDSVLSILNGPNQELADEIEALFNAKSREGILKRIWPKTKYIEVIVTGSMAQYIPTLEFYSGGLPLVSVMYASSECFFGLNINPLCKPSDVSYTLLPNMAYFEFLPVDDKSHEETHLESRSTDDVSLTDKDRIVDLVSVEIGRYYELIITTFAGLYRYRVGDILKVTGFHNKAPQFSFVERRNVVLSIDTDKTSEEDLMKAVTQAKLNHLQGLFLLTEYTSYADTSSIPGHYVLFWELKPRYDNDPPKLDKKMMEDCCSEVEDCLDYVYRRCRNKDRSIGALEIRVVSLGTFDALMDFSISQGSSVNQYKTPRCVKSGGALQILDSRVIGRFFTKRVPQWEPLGLDS
With B2, in test [1], the “Detected auxin conjugates: IAA-Asp” value is recorded as “Yes” and the “Detected auxin conjugates: IAA-Glu” value is on record as “Yes”. In addition, in test [2], the “Detected auxin conjugates: 2,4-D-Asp” value is reported as “Yes” and the “Detected auxin conjugates: 2,4-D-Glu” value is on record as “Yes”. Further, in test [3], the “Detected auxin conjugates: Dicamba-Asp” value was “No” and the “Detected auxin conjugates: Dicamba-Glu” value was “No”.

B3: BjACC38383.1: GH3 protein, accession ACC38383.1 (protein, listed as Brassica juncea)
chain: MIIISYYNEEEKGKVLEDLTWNVKQIQDDLLKEILTLNSGTEYLQNFLHGSSAKELFKKNLPIVTYKDVKPYIDRVANGESSNIISTLPITNFFNSSGTSGGANKILPSNSKYLDGSAFSTDLLAHVIRKHVKGVERGKGMLFFLTGHDTKTPGGFPIEDGISWYLKSDYFKNRPSTWFYSYTSPDEVMLGSDLKENLYCHLLCGLVQRDEVTRIGSTFASGMVRVIKVLEDSWKELCSNIRSGNLSEWITDSGCRNSVSLVLGGQPRHKLSDEIESICSQKSWKGIMKKLWPQTLCIEAIATGSMAQYVPTLKHYSGDVPLVSTIYASSESMFGINTDPLCQPENTSYTLMPNISYFEFIPTEGGNGDVVDLADVKLGCSYQLLVTNLWGLYRMRIGDIVKVTGFHNKAPKFRVIGRENTLLSIDTDRTTEEYLLKAVNRARLVLESSDLRLVAFTSYADISSSPGHYVIYWEVKTKEEDMKELDEKTFLECCSVMEDTLDEEYMYCRANEFIGPLEIRVVNDGTFDSLMNLSISKGASITQYKYWRQMWLLDSSVLSEHLMCLSHDIWSKKRGRNVCVLSVLSWFLLTIF
In the case of B3, in test [1], the “Detected auxin conjugates: IAA-Asp” value is “Yes” and the “Detected auxin conjugates: IAA-Glu” value is given as “No”. In test [2], the “Detected auxin conjugates: 2,4-D-Asp” value was “No” and the “Detected auxin conjugates: 2,4-D-Glu” value is “No”. In test [3], the “Detected auxin conjugates: Dicamba-Asp” value was “No” and the “Detected auxin conjugates: Dicamba-Glu” value is given as “No”.

B4: GmGH3-14: GH3 protein, accession XP_003516612.1 (protein)
chain: MRPYPYVFPGPHVLPAKSTTEVVLIFCPLRYPGPLPLSFPFILSILILPSLIMALQFIEQVTKNTDSVQERVLSEILTQNAETEYLKRFALNGATDRDTFKSKVPVVTYEDLQPDIERIANGDRSPILCAHPISEFLTSSGTSAGERKLMPTIHEEMDRRQLLYSLLMPVMNQYVSDLDKGKALHFLFIKAEAKTPGGLMARPVLTSYYKSEQFRKRPFDPYNVLTSPNEAILCPDSFQSMYTQMLCGLIMRHEVLRVGAVFASGLLRAIRFLQLNWEQLSHDILTGTLNPKITEPSIKERMSKILKPDPELAAFIKSECSGENWERIIVRIWPNTKYLDVIVTGAMAQYIPTLDYYSGGLPKPCTMYASSECFFGLNLKPMSEPSDVSYTILPNMGYFEFLPHDDSSPITLSKDSPPRLVELADVELGKYYELIITTYAGLCRYRVGDILQVTGFHNSDPQFRFVRRKNVLLSIDSDKTDESELQKAVENASELLKEFNTSVAEYTSFADTKSIPGHYVIYWELMMKDSSHPPTNQVLNQCCLVMEESLNSVYRQGRVADNSIGPLEIRVVKNGTFEELMDYAISRGASINQYKVPRCVSFTPIMELLDSRVLSFHFSPAAPHWTPERRR
modifications: Glycine max
Regarding B4, in test [1], the “Detected auxin conjugates: IAA-Asp” value is “No” and the “Detected auxin conjugates: IAA-Glu” value is “No”. For the same molecule, in test [2], the “Detected auxin conjugates: 2,4-D-Asp” value was “No” and the “Detected auxin conjugates: 2,4-D-Glu” value is “No”. For the same molecule, in test [3], the “Detected auxin conjugates: Dicamba-Asp” value is listed as “No” and the “Detected auxin conjugates: Dicamba-Glu” value is “No”.

B5: Gm03g30590.1: GH3 protein, Glyma03g30590.1 (protein)
chain: MMTDEELLQKLEDLTKNAQHHHLETLRSILLHNGIVHYLQSFKKGSLLHLDPSTFARVVPLSTYEDYVDYINQMAEGKDDPFLSVDPLRCFFYSSGTSSSTMKPKLIPYFDSSLSKAASFIGHRGSVAVRQRLFPPRPEVNKILWFLYADNITTTKCGLKVMAASTYPLQSGNATPQQLAAFSSPLEVILATNVENQMYCHLLCGLRNLDLIDGIATPYAIGLIKAFGFLESKWEQLCDDLDHGFPCNEISEGAMREAVTNTLGGPQPELANRIRLICEGNNWGGIVYRLWPNIRYIRCVTTGSMKQYYQKLKYYAGEVPILGGDYFASECCVGLNLDIMQPPETTRFVMLPTFAYFEFLPFNINEDNDASKEAVDYSSVEVGKMYEVVVTTYRGYYRYRLGDIVRVVGFYNSSPLVEYVMRAPKTPAEIVTEKDLISAVENFQLALRGAMRIEIVEFASFLDQESMPKQLKVFVEVQEESDFLEDKLEESVRVLRSCISSLESGLGAIYKVQKDKGQLRSLRIFIIRPGAFDQLSELAIKNGTSASQYKPPKIIRNHEVVKLLEKLAFVAVSFDG
modifications: Glycine max
With B5, in test [1], the “Detected auxin conjugates: IAA-Asp” value was “Yes” and the “Detected auxin conjugates: IAA-Glu” value is “No”. For the same molecule, in test [2], the “Detected auxin conjugates: 2,4-D-Asp” value is “Yes” and the “Detected auxin conjugates: 2,4-D-Glu” value is on record as “Yes”. In test [3], the “Detected auxin conjugates: Dicamba-Asp” value is given as “No” and the “Detected auxin conjugates: Dicamba-Glu” value is on record as “No”.

B6: GmGH3-15: GH3 protein, accession XP_003540050.1 (protein)
chain: MPEAPRDYNLFEQNKKTLEFIEDVTANADQVQKRVLSEILSNNANVEYLKRHDLHGQTDRETFKKLLPVITYEDIQPDINRIANGDTSPILCSKPISEFLTSSGTSGGERKLMPTIEEELGRRSLLYSLLMPVMSQFVPGLEKGKGMYLMFIKSEAKTPGGIVARPVLTSYYKSSYFKDRPYDPYTNYTSPNETVLCPDSYQSMYSQLLCGLCQHKEVLRVGAVFASGFIRAIRFLEKHWPLLCHDIRTGTINNTITDLSVRDAVMKILKPDPRLGDLIQSECGKSSWQGIITRLWPNTKYVDVIVTGTMSQYIPTLDYYSNGLPLVCTMYASSECYFGVNLNPLCKPSEVSYTLIPTMCYYEFLPVNRSNGVSHDSLHTPRSLNEKEQQELVELVDVKLGQEYELVVTTYAGLYRYRVGDVLRVAGFKNKAPQFNFVCRKNVVLSIDSDKTDEVELQNAMKNAVTHLVPFDASVSEYTSYADTTTIPGHYVLYWELSLKGSTPIPPCVFEDCCLAIEESLNSVYRQGRVSDKSIGPLEIKIVEQGTFDKLMDYAISLGASINQYKTPRCVKFAPVVELLNSRVVEKYFSPKCPKWVPGHKQWINQN
modifications: Glycine max
On to B6, for which, in test [1], the “Detected auxin conjugates: IAA-Asp” value is “Yes” and the “Detected auxin conjugates: IAA-Glu” value is given as “Yes”. In test [2], the “Detected auxin conjugates: 2,4-D-Asp” value is given as “Yes” and the “Detected auxin conjugates: 2,4-D-Glu” value is listed as “Yes”. Moreover, in test [3], the “Detected auxin conjugates: Dicamba-Asp” value is “No” and the “Detected auxin conjugates: Dicamba-Glu” value is recorded as “No”.
